Reference: PMC6699766
Where two headings read alike, the source gives them in different places.

Tests used:
[1] = biological target: photosystem I complex of Prochlorococcus marinus ecotype MIT9313 (Prochlorococcus marinus MIT9313 (endogenous in thylakoid membranes)); experiment: atomic force microscopy
[2] = biological target: photosystem I complex of Prochlorococcus marinus ecotype MED4 (Prochlorococcus marinus MED4 (endogenous in thylakoid membranes)); experiment: atomic force microscopy
[3] = biological target: photosystem I complex of Prochlorococcus marinus ecotype MED4 (Prochlorococcus marinus MED4 (endogenous in thylakoid membranes)); experiment: atomic force microscopy; remark: listed apart in the source
[4] = biological target: photosystem I complex of Synechocystis sp. PCC 6803; experiment: negative stain TEM
[5] = biological target: photosystem I complex of Prochlorococcus marinus ecotype SS120 (Prochlorococcus marinus SS120 (endogenous in thylakoid membranes)); experiment: atomic force microscopy

## photosystem I complex of Prochlorococcus marinus ecotype MIT9313
[1]
  ratio of trimeric to non-trimeric PSI: 44.5
  stoichiometry N: 3

## photosystem I complex of Prochlorococcus marinus ecotype MED4
[2]
  stoichiometry N: 3
[3]
  ratio of PSI monomer equivalents in trimeric vs monomeric or dimeric PSI: 5.3
  stoichiometry N: 2

## photosystem I complex of Synechocystis sp. PCC 6803
[4]
  stoichiometry N: 3

## photosystem I complex of Prochlorococcus marinus ecotype SS120
[5]
  stoichiometry N: 3
